Source: the DeepSol protein solubility set

Assay: soluble on expression in E. coli; label from the status in PepcDB or PDB records
In the case of “DPDIQSTVEAMLLDRVDALPPKVSMAVLVMDNDSLEVKAYAGSADFTDDSRYAHVDMVRGVRSPGSTLKPFLYALALDEGLIHSESLLLDAPLSFGGYAPGNFQAAFAGPVSVAQALQRSLNVPAVDLLDRVGPARFASVMLAGGVHLRMPAGAVPNLSLILGGGGTTLEELVGAYRALARGGLSGRPRLRASQPRIEARLMSPGAAWIVRDILELGGHPDRPLFQGAAAGRQLAWKTGTSFGFRDAWAVGVTDRYTIGAWVGRPDGTPNPGFFGANVAAPLLQDIVAALPAGAPVPRT”, the “soluble on expression in E. coli” value is reported as “not soluble”.
For “DPEDPAEDIIQTAGTIAHRGADRQDGGWGSGGPKFPQNGRLHALLRAYADGGQEDYLNVVEETLDVMADRGLYDHVGGGFHRYATDQQWAVPHFEKMLYDNAEIPRAFLAGYQAIGSERYASVVRETFEFVQRELQHPDGGFFSTLDAESAPHSESRSDSEQSSGESPRDDPDGETEEGLFYVWTPEQVHDAVDDETDADIFCDYYGVTEQGNFEGATVLAVRKPVPVLAEEYERSEDEITASLQRALNETFEARKDRPRPARDEKVLAGWNGLMIRALAEGAIVLDDQYADVAADALSFVREHLWDADAGRLNRRYKDDDVAIDGYLEDYAFLGRGALTLFEATGDVEHLAFAMDLGQAITEAFWDDEQGTLFFTPTGGESLVARPQELTD”, the “soluble on expression in E. coli” value was “not soluble”.
For “DQNAYHSIRTLLKSPTTLGEVKEHITHALTITPTKGSVINAFEHMWGYFKKQCTQYEKQHSRELKALYIENQIDYFELLSFLKNLADKYAVEYLQQSTILNITK”, the “soluble on expression in E. coli” value was “not soluble”.
For “DQVLKGAALVGHNVLVPSAQVAIDATGSAKGVVAATSAGFVNFEITDANGTFVKQLSVPASAAGEVSFAWDGTDANGNRMAAGKYGITATQTDTAGAKSKLATYVDAPVDSVTIGSDGLYLNLTGLGTSPLANVLRVS”, the “soluble on expression in E. coli” value was “soluble”.
For “DRWIRPRGAFGGLPSLKSSFVLSESTVPGTNETVKTFLPYGSVINYYGYVKPGQAPDGLVDGNKKAYYLYVWIPAVIAEMGVRMISPTGEIGEPGDGDLVSDAFKAATPEEKSMPHWFDTWIRVERMSAIMPDQIAKAAKAKPVQKLDDDDDGDDTYKEERHNKYNSLTRIKIPNPPKSFDDLKNIDTKKLLVRGLYRISFTTYKPGEVKGSFVASVGLLFPPGIPGVSPLIHSNPEELQKQAIAAEESLKKAASDATK”, the “soluble on expression in E. coli” value was “soluble”.
For “DSGYSRETRALLFRAYRHDPTFAYLFNAEREGYEQRVLATIRQLVKQHFLQNQPALGLFLEDRLVGVALIAPPLRRLGVTESWAWRLRMVMDTGLGCTQRYLAYYNAVLACLPSETVHVLPLIGLDPEFQGQKMGQDLSEQLLAALHDWCAVDENSQGIVVDTGNPRYLEFYKRQGYEEIGEIAVGPV”, the “soluble on expression in E. coli” value was “not soluble”.
For “DVQLQESGGGLVQAGGSLRLSCAASGATGSTYDMGWFRQAPGKERESVAAINWGSAGTYYASSVRGRFTISRDNAKKTVYLQMNSLKPEDTAVYTCGAGRIGRSVFNLRRESWVTWWGQGTQVTVSS”, the “soluble on expression in E. coli” value was “soluble”.
In the case of “DVQLQQSGPELKKPGETVKLSCKASGYTFTNFGLNWMKQAPGKGLKWMGWINTYTGESTYADDFKGRFAFSLETSASTAYLQINNVKNEDTATYFCARGFYYYGSRYFYFDYWGQGTTLTVSSAKTTAPSVYPLAPVCGDTTGSSVTLGCLVKGYFPEPVTLTWNSGSLSSGVHTFPAVLQSDLYTLSSSVTVTSSTWPSQSITCNVAHPASSTKVDKKIEPRGP”, the “soluble on expression in E. coli” value is reported as “soluble”.
For “EANLKPENVEIHIIDDNFFLKWNSSSESVKNVTFSADYQILGTDNWKKLSGCQHITSTKCNFSSVELENVFEKIELRIRAEEGNNTSTWYEVEPFVPFLEAQIGPPDVHLEAEDKAIILSISPPGTKDSIMWAMDRSSFRYSVVIWKNSSSLEERTETVYPEDKIYKLSPEITYCLKVKAELRLQSRVGCYSPVYCINTTERHKVPSPENIQINADNQIYVLKWDYPYENATFQAQWLRAFFKKIPGNHSDKWKQIPNCENVTSTHCVFPREVSSRGIYYVRVRASNGNGTSFWSEEKEFNTEMKTIIFPPVISVKSVTDDSLHVSVGASEESENMSVNQLYPLIYEVIFWENTSNAERKVLEKRTNFIFPDLKPLTVYCVKARALIENDRRNKGSSVSDTVCEKTKPGNTSK”, the “soluble on expression in E. coli” value was “not soluble”.
In the case of “EDLDCTPGFQQKVFHINQPAEFIEDQSILNLTFSDCKGNDKLRYEVSSPYFKVNSDGGLVALRNITAVGKTLFVHARTPHAEDMAELVIVGGKDIQGSLQDIFKFARTSPVPRQKRSIVVSPILIPENQRQPFPRDVGKVVDSDRPERSKFRLTGKGVDQEPKGIFRINENTGSVSMTRTLDREVIAVYQLFVETTDVNGKTLEGPVPLEVIVIDQNDNRPIFREGPYIGHVMEGSPTGTTVMRMTAFDADDPATDNALLRYNIRRQTPDKPSPNMFYIDPEKGDIVTVVSPALLDRETLENPKYELIIEAQDMAGLDVGLTGTATATIMIDDKNDHSPKFTKKEFQATVEEGAVGVIVNLTVEDKDDPATGAWRAAYTIINGNPGQSFEIHTNPQTNEGMLSVVKPLDYEISAFHTLLIKVENEDPLVPDVSYGPSSTATVHITVLDVNEGPVFYPDPMMVTRQEDLSVGSVLLTVNATDPDSLQHQTIRYSVYKDPAGWLNINPINGTVDTTAVLDRESTFVDNSVYTALFLAIDSGNPPATGTGTLLITLEDVNDNAPFIYPTVAEVCDDAKNLSVVILGASDKDLHPNTDPFKFEIHKQAVPDKVWKISKINNTHALVSLLQNLNKANYNLPIMVTDSGKPPMTNITDLRVQVCSCRNSKVDCNAAGALRFSLPSVLLLSLFSLACL”, the “soluble on expression in E. coli” value is reported as “soluble”.
For “EEIHLIAVNELLYVKAEDKYLSLYKVHGATTHEYLLRSSLKELLAQLDPNQFWQIHRSIVVNVGKIDKVTRDFGGKMWVHIDRLQLPVSRALQHLFKVS”, the “soluble on expression in E. coli” value was “not soluble”.
With “EHEICAGETGVPLATDTIMLSRQVSFDRIRLLSGVSNDELQLLNPQYKRGIIPGNTQLCRLRLPVASIKKLDKVRDSLYSPDLEASVSDFPEQGGQHSGGSGRTAIFHNVKQGETLLSIAKRYGTTVAAIKRANGLKSSSVKPGQRLQITKSSASGTKKKSKYSAKRKSRRRK” the “soluble on expression in E. coli” value was “not soluble”.
For “EHNKRVNLANAGRVSSAEGIKKLRASGVKFVWVDQSLSAQQCVFKPVEEPIDIEVGDKTLSVSSKVQRAYRSREVQHKRAKKLIAEAKGLAQKLLNQTFEGKVIQVDEIESWADDMIESVFIDSDALQCVSALRQKDSYLLEHSVNVACLLVSFGKHLGLDKDTLKQLAIGGIIHDVGKIKVDDKILHKPARLTPEEFEHMKLHQVFAGEIIVEVKGLSDVSRDVCLMHHEKLDGTGYPRGLSGDEIPIHGRMSCIVDIYDALTADRCYKKGMSSAEAFKILLSLTPFHLDPDL”, the “soluble on expression in E. coli” value was “not soluble”.
For “EKLTLAEKVWRDHVVSKGENGEPDLLYIDLQLLHEVTSPQAFDGLRMTGRKLRHPELHLATEDHNVPTEGIKTGSLLEINDKISRLQVSTLRDNCEEFGVRLHPMGDVRQGIVHTVGPQLGATQPGMTIVCGDSHTSTHGAFGSMAFGIGTSEVEHVMATQTLPLKPFKT”, the “soluble on expression in E. coli” value was “not soluble”.
In the case of “ELHAELVKRQHLETFLKTQIESELVDVYFQPIIETRTGNVVKFEALARFYHENSEYSTQEMISIIEDLELIAALDDVVCQTALKQWSHLQKIYGENIGLSINRSLNTKLDSLQVLQRSLDLIKASDVNPKLVTIELTETAYFEQDEEHAFALEQIRQEGIQIAIDDFGTGYSSFSYLEEGQFDVLKIDRKFVKNIHEGSTSYNIVKTITDLAHKLNVEVVAEGVESQRELEVLAGIGVDYMQGFLFSQA”, the “soluble on expression in E. coli” value is reported as “not soluble”.
With “ELKDSYVDYTLLYDMIANRIGIEEAVVENGALRLMKNQVWAYDFLPHMLIAGGTGGGKTYFLLTIIEALLKSDAELFILDPKNADLADLGTIMTHVYSQKEQISACVEDFYERMMVRSRLMKEMPNYKTGENYAYLGLSPNFLVFDEYVAYMEMLTTKESAVILNKLKQIVMLGRQSGFFLILACQRPDA” the “soluble on expression in E. coli” value was “not soluble”.
With “ELLPDVRLLYGETPFARTPVMYEPGIIILFSGHKIGYINERVFRYDANEYLLLTVPLPFECETYATSEVPLAGLRLNVDILQLQELLMDIGEDEHFQPSMAASGINSATLSEEILCAAERLLDVMERPLDARILGKQIIREILYYVLTGP” the “soluble on expression in E. coli” value was “not soluble”.
With “ELTLRIAYNLFTQRPKEEYDDFARWITMTGPGKGSDVYKMNGAGEMLVFSAADFEDFLEPRPDLMPAMEEELKKVVALLVEHRWPFRLHATYDESISRFLAVFEAVDREIPFRGLRWFFDHAETISNRNLERVRRLGGGIAIQDRMAFQGEYFVARYGAEAAKRTPPIARMLAMGIPVGAGTDATRVSSYNPWLSLYWLVSGKTVGGLPLYDDANRLDRTAALRLYTEGSSWFSGDNGSKGALIAGRHADLAVLSADYFAVPEARIKDIESVLTIMGGKIVHASDEFAPLAPPLPPVSPDWSPVASYGGYHGNAAVSTGLRREPCVCHSHSPAWSGPDPRFWGIGCDCFA” the “soluble on expression in E. coli” value was “not soluble”.
For “ENLMQVYQQARLSNPELRKSAADRDAAFEKINEARSPLLPQLGLGADYTYSNGYRDANGINSNATSASLQLTQSIFDMSKWRALTLQEKAAGIQDVTYQTDQQTLILNTATAYFNVLNAIDVLSYTQAQKEAIYRQLDQTTQRFNVGLVAITDVQNARAQYDTVLANELTARNNLDNAVEQLRQITGNYYPELAALNVENFKTDKPQPVNALLKEAEKRNLSLLQARLSQDLAREQIRQAQDGHLPTLDLTASTGISDTSYSGSKTRGAAGTQYDDSNMGQNKVGLSFSLPIYQGGMVNSQVKQAQYNFVGASEQLESAHRSVVQTVRSSFNNINASISSINAYKQAVVSAQSSLDAMEAGYSVGTRTIVDVLDATTTLYNAKQELANARYNYLINQLNIKSALGTLNEQDLLALNNALSKPVSTNPENVAPQTPEQNAIADGYAPDSPAPVVQQTSARTTTSNGHNPFRN”, the “soluble on expression in E. coli” value was “soluble”.
With “ENMLFTVVSLYISTKVLDFILEGYNPKKSVTIISDYYEEIATEIDANLERGITLFNGQGFYMRQDKKILYIVISRDQLLPLTKIVNKYDEKAFFIINDVQSVVGEGFTKQITSE” the “soluble on expression in E. coli” value was “not soluble”.
For “EPDLDDWFENDREDLRHFVGIYVLAHYRNRPSDVALLADAPHHEARVLRLKNGKIVTAIQIAKEGGIPKAVIDKMAKGYKPPGNIIPDMMVKHHYAKEFARLKGYRVVRIATHPDAMDMGLGSKALELLIKEAEEKGLDWVGSGFGASPELIRFWVRNGFAVVHLSPTRNPVSGEYTAIVIKP”, the “soluble on expression in E. coli” value was “not soluble”.
For “EPNTPFGHTPPKGLPQDEAALDIEDAVHGALEGAGFVHYETSAFAKPAMQCRHNLNYWQFGDYLGIGAGAHGKISYPDRIERTVRRRHPNDYLALMQSQPSEAVERKTVAAEDLPFEFMMNALRLTDGVPAAMLQERTGVPSAKIMAQIETARQKGLLETDPAVFRPTEKGRLFLNDLLQCFL”, the “soluble on expression in E. coli” value was “not soluble”.
In the case of “EPTNAPAALSRRFSVAPMMDWTDRHCRFFLRQLSRHTLLYTEMVTTGALLHGDRQRFLRYDECEHPLALQLGGSVPAELAACARLAEEAGYDEVNLNVGCPSDRVQHNMIGACLMGHPALVADCVKAMLDAVEIAVTVKHRIGINGRDSYAELCDFVGQVREAGCRSFTVHARIAILEGLSPKENREVPPLRYEVAAQLKKDFPDLEIVLNGGIKTLEACREHLQTFDGVMLGREAYHNPYLLAAVDSQLFGSEAPPLSRSEALLRLRPYIERHQAEGGAMHHVTRHILGLAQGFPGSRRFRQLLSVDVHKAADPLRVFDQA”, the “soluble on expression in E. coli” value is reported as “not soluble”.
In the case of “EQISISSPRKRIYHNILETIGGTPLVELHGVTEHPRIKKGTRILVKLEYFNPMSSVKDRVGFNIVYQAIKDGRLKPGMEIIESTSGNTGIALCQAGAVFGYRVNIAMPSTMSVERQMIMKAFGAELILTEGKKGMPGAIEEVNKMIKENPGKYFVANQFGNPDNTAAHHYTANEIWEDTDGEVDIVVSAVGTSGTVIGVAEKLKEKKKGIKIIAVEPEESAVLEGKAKGPHGIQGIGAGFIPDIYKKEFVDEIIPIKTQDAWKMARAVVKYDGIMCGMSSGAAILAGLKEAEKPENEGKTIVIIVPSCGERYLSTDLYKIKDEGTKIQILDSLLNEHH”, the “soluble on expression in E. coli” value is reported as “soluble”.
